This is an account of results in paper PMC11790763, “A Peptide Motif Covering Splice Site B in Neuroligin-1 Binds to Aβ and Acts as a Neprilysin Inhibitor” (Molecular Neurobiology, 2024).

A word on the Kd: it is a measure of binding affinity in units of concentration.

In one assay the target is T1, recombinant rat NL1 (Rattus norvegicus, UniProt Q62765).
T1 construct: the extracellular domain of NL1 was immobilized on a sensor chip; purchased R&D systems (Abingdon, UK)
The assay is described as follows: Surface plasmon resonance binding to immobilized NL1. As to conditions: SPR, Biacore 2000, 25 °C, HBS-P pH 7.4 + 3 mM CaCl2; analyte injected over NL1 immobilized on CM4 chip, 20 μl/min; 1:1 Langmuir model; four independent experiments. As to the method:
Binding analysis was performed on a Biacore 2000 SPR biosensor (GE Healthcare) at 25 °C using HBS-P (10 mM HEPES, pH 7.4, 150 mM NaCl, 0.005% [v/v] Surfactant P20) supplemented with 3 mM CaCl2 as a running buffer. Approximately 2000 Resonance Units (RU) of NL1 was immobilized on a CM4 sensor chip at a flow rate of 5 μl/min by amine coupling. Binding to serially diluted recombinant NX1β, used as a positive control, was performed as previously described. Aβ1-42 was dissolved in anhydrous DMSO to a stock concentration of 3.21 mM followed by serial dilution in running buffer. Peptide was injected into the chip, and binding experiments were performed at a flow rate of 20 μl/min, followed by regeneration of sensor chip with 10 μl of 15 mM NaOH and 150 mM NaCl. After subtraction of blank control, the binding curves were analyzed based on a nonlinear curve fitting using a 1:1 Langmuir binding model and the software package BIAevaluation 4 (GE Healthcare). The apparent equilibrium constant (KD) was calculated as kd/ka, in which ka and kd are the apparent association and dissociation constants, respectively.
In general terms: Surface plasmon resonance follows binding to a sensor surface in real time, without labels.

Assay [1] has as its target Biotinylated amyloid-β peptide 1-40 (Aβ1-40). Briefly: ELISA; competitive ELISA: NL1 (3.125 nM) coated on the plate; biotinylated Aβ1-40 (400 nM; Aβ40-1 as negative control) premixed 30 min with serially diluted NL1 or NL1-derived peptides; 4 h at room temperature; streptavidin-HRP; IC50 interpreted as KD.

T1 sequence (Q62765 46-697 limits assumed): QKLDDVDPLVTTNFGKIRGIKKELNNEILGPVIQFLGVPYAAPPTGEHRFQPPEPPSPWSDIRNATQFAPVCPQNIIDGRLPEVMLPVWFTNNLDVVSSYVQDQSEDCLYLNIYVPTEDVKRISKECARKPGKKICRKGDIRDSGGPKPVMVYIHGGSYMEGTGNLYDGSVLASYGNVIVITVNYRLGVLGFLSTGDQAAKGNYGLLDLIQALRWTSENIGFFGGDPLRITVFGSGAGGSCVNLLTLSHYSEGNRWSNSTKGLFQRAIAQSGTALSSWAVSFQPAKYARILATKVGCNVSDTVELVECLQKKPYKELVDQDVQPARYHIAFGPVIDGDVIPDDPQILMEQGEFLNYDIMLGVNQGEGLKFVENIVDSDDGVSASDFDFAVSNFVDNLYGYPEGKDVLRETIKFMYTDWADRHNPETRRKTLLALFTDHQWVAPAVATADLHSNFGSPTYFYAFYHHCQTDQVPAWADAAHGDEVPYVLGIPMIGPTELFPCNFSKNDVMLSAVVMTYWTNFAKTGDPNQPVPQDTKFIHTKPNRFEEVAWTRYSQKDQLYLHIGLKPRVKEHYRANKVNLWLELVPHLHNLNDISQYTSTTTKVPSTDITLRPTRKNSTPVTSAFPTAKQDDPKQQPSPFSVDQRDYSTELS

On to “NX1β: recombinant neurexin-1β, positive control for binding to NL1”, for which the Kd in the assay with recombinant rat NL1 was found to be 6.64 nM.

“Recombinant rat neuroligin-1 (NL1), soluble extracellular domain (from UniProt Q62765 46-697) (domain or fragment)”: the dissociation constant Kd in assay [1] was 19.9 nM.
